Source: patent US20100203046A1 (Biogen, published 2010)
Where two headings read alike, the source gives them in different places.

Tests used:
[1] = molecular target: T1, human FcγRIII (CD16), CD16a (F158), on CD16-transfected Jurkat cells (human, UniProt P08637 17-254); assay: CD16 bridging assay, transient
T1 construct: whole, on cells

[2] = molecular target: Human FcγRIIIa on natural killer (NK) cells of a donor (human, UniProt P08637 17-254); assay: cell-based or functional assay
[3] = molecular target: T2, human FcγRI (CD64) on IFNγ-activated U937 cells (human, UniProt P12314 16-374); assay: CD64 bridging assay, purified
T2 construct: whole, on cells; also called FcγR1

[4] = molecular target: T3, human C1q (Sigma C0660) (human, UniProt P02745 23-245; P02746 28-253; P02747 29-245); assay: C1q ELISA on CD2, purified
T3 construct: Bought protein; also called complement protein C1q
Description: (§1) The C1q binding assay was performed by coating 96 well Maxisorb ELISA plates (Nalge-Nunc Rochester, N.Y., USA) with 50 μl recombinant soluble human CD2 at 10 μg/ml overnight at 4° C. in PBS. The wells were aspirated and washed three times with wash buffer (PBS, 0.05% Tween 20) and blocked for >1 h with 200 μ/well of block/diluent buffer (0.1 M Na₂HPO₄, pH 7, 0.1 M NaCl, 0.05% Tween 20, 0.1% gelatin). The antibody to be tested was diluted in block/diluent buffer starting at 15 μg/ml with 3-fold dilutions. 50 μl were added per well, and the plates incubated for 2 h at room temperature. After aspirating and washing as above, 50 μl/well of 2 μg/ml of Sigma human C1q (C0660) diluted in block/diluent buffer was added and incubated for 1.5 h at room temperature. After aspirating and washing as above, 50 μl/well of chicken anti human C1q (Cedarlane laboratories CL2101AP), diluted 2,000-fold in block/diluent buffer, was added. After incubation for 1.5 h at room temperature, the wells were aspirated and washed as above. 50 μl/well of donkey F(ab′)₂ anti chicken IgY HRP conjugate (Jackson ImmunoResearch 703-036-155) diluted to 1:5,000 in block/diluent was then added, and the wells incubated for 1 h at room temperature. After aspirating and washing as above, 100 μl TMB substrate (420 μM TMB, 0.004% H₂O₂ in 0.1 M sodium acetate/citric acid buffer, pH 4.9) was added and incubated for 2 min before the reaction was stopped with 100 μl 2 N sulfuric acid. The absorbance was read at 450 nm with a Softmax P instrument, and Softmax software was used to determine the relative binding affinity (C value) with a 4-parameter fit.

[5] = molecular target: T4, GST-tagged FcγRIII, CD16a (V158) (UniProt P08637 17-208, limits assumed); assay: AlphaScreen competition vs huIgG1 beads, purified
T4 construct: the canonical entry carries F there; Captured by biotinylated anti-GST mAb on streptavidin donor beads; also called GST-FcγRIII; not shown: GST tag
Description: The relative binding affinities to FcγRIII (CD16), of the variant antibodies, was determined using an AlphaScreen assay (Amplified Luminescent Proximity Homogeneous Assay, PerkinElmer, MA, USA). Laser excitation of a donor bead excites oxygen, which if in close proximity to an acceptor bead generates a cascade of chemiluminescent events, ultimately leading to fluorescence emission at 520-620 nm. […] The reaction was carried out for one hour in a 25 μl volume and plates were read in the Fusion Alpha reader (PerkinElmer).

[6] = molecular target: T1, human FcγRIII (CD16), CD16a (F158), on …; assay: CD16 bridging assay, purified
[7] = molecular target: T1, human FcγRIII (CD16), CD16a (F158), on …; assay: CD16 bridging assay, transient; remark: listed apart in the source
[8] = molecular target: T1, human FcγRIII (CD16), CD16a (F158), on …; assay: CD16 bridging assay, transient; remark: listed apart in the source
[9] = molecular target: T3, human C1q (Sigma C0660); assay: C1q ELISA on CD2, transient
Description: as §1

[10] = molecular target: T1, human FcγRIII (CD16), CD16a (F158), on …; assay: summary of Table 5 assays
[11] = molecular target: T3, human C1q (Sigma C0660); assay: summary of Table 6 assays
[12] = molecular target: T1, human FcγRIII (CD16), CD16a (F158), on …; assay: CD16 bridging assay, transient; remark: listed apart in the source
[13] = molecular target: T1, human FcγRIII (CD16), CD16a (F158), on …; assay: summary of Table 3 assays
[14] = molecular target: T1, human FcγRIII (CD16), CD16a (F158), on …; assay: CD16 bridging assay, transient; remark: listed apart in the source
[15] = molecular target: T1, human FcγRIII (CD16), CD16a (F158), on …; assay: CD16 bridging assay, purified; remark: listed apart in the source

T1 sequence (P08637 17-254): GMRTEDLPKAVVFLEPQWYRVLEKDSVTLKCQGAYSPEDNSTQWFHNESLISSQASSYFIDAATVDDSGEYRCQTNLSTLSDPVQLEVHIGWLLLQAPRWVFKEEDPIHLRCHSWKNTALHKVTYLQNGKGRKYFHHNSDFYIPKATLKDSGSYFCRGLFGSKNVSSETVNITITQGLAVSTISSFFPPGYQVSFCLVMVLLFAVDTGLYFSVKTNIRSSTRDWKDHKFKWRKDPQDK
T3 sequence (P02745 23-245 limits assumed, chain 1 of 3): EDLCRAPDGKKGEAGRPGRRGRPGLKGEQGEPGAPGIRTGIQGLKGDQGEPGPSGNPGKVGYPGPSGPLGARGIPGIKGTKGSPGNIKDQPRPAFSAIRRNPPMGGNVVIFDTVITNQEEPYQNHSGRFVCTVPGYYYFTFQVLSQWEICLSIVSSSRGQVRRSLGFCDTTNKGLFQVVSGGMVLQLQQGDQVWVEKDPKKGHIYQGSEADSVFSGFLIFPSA
T3 sequence (P02746 28-253 limits assumed, chain 2 of 3): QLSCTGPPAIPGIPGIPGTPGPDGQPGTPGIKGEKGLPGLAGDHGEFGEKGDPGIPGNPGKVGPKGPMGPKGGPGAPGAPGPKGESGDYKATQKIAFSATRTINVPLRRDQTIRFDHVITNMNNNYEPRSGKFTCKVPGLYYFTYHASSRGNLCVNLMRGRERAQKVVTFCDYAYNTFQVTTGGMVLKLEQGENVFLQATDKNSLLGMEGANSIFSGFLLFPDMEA
T3 sequence (P02747 29-245 limits assumed, chain 3 of 3): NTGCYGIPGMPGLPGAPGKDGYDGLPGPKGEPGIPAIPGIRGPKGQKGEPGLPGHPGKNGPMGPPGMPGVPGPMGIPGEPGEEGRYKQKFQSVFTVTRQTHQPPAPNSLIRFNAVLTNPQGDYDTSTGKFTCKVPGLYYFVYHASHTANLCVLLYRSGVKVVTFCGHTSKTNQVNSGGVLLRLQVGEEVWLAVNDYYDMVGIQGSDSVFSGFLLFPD
T4 sequence (P08637 17-208 F176V limits assumed): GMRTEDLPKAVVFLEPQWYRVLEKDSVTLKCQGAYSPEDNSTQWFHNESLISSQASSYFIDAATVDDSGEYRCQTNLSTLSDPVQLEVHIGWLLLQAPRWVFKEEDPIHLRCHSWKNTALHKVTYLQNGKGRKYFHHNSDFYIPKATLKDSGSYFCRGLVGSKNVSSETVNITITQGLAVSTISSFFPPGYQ
T2 sequence (P12314 16-374): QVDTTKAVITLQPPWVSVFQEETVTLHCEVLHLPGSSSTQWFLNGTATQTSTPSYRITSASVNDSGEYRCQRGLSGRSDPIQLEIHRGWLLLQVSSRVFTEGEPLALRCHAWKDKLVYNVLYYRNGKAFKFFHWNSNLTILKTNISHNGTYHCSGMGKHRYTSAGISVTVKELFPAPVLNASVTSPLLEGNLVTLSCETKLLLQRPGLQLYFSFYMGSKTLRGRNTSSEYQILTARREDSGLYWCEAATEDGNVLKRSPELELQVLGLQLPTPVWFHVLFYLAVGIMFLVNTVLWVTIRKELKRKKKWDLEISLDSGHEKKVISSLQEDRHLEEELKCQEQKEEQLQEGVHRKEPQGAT
Human FcγRIIIa on natural killer (NK) cells of a donor, sequence (P08637 17-254): as the sequence (P08637 17-254) above

B1: chCB6-huIgG1 I332E (antibody, name in EU numbering)
heavy: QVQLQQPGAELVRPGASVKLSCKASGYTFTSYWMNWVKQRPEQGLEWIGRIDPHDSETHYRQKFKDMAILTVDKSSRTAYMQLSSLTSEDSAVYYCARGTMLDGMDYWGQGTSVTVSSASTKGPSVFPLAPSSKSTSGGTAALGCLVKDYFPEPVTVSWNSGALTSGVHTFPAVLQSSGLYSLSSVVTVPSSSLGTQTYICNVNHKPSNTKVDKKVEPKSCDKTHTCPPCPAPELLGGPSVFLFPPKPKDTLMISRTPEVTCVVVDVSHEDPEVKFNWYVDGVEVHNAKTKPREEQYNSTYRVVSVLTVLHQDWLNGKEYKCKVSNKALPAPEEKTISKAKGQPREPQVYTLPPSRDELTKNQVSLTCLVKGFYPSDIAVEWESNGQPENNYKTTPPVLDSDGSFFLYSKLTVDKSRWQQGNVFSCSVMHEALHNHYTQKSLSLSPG
light: QIVLTQSPAIMSASPGEKVTMTCRASSSVSHMHWYQQKSGTSPKRWIYDTSKLASGVPARFSGSGSGTSYSLTISSVEAEDAATYYCQQWSSNPLTFGAGTKLELKRTVAAPSVFIFPPSDEQLKSGTASVVCLLNNFYPREAKVQWKVDNALQSGNSQESVTEQDSKDSTYSLSSTLTLSKADYEKHKVYACEVTHQGLSSPVTKSFNRGEC
notes: copies: 2 + 2
With B1 the “fold increase in binding vs WT” value [1] was 20 fold, the “ADCC NK cell, purified (fold increase vs WT)” value [2] was 24 fold and the binding result [3] was “binds”. The binding result [4] was “binds”, the “fold increase in binding vs WT” value [5] was 8 fold and the “fold increase in binding vs WT” value [6] was 7 fold.

B2: chCB6-huIgG1 H268P (antibody, name in EU numbering)
heavy: not shown
light: B1 light
notes: copies: 2 + 2
B2 was tested, and the “fold decrease in binding vs WT” value [7] was 3 fold.

B3: chCB6-huIgG1 L328T (antibody, name in EU numbering)
heavy: not shown
light: B1 light
notes: copies: 2 + 2
For B3, the “fold decrease in binding vs WT” value [7] was 3 fold.

B4: chCB6-huIgG1 Y296H (antibody, name in EU numbering)
heavy: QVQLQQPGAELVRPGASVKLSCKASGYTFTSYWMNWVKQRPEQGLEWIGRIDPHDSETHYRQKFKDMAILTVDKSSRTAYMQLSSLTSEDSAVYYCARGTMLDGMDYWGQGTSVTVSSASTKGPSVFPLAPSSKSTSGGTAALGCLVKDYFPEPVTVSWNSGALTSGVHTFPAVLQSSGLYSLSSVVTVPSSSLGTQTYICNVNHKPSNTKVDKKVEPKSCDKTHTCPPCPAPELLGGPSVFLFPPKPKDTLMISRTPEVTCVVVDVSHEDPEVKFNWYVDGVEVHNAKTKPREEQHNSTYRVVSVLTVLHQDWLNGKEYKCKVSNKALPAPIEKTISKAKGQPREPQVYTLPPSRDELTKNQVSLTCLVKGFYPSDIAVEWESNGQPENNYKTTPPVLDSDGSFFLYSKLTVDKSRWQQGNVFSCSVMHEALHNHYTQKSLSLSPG
light: B1 light
notes: copies: 2 + 2
For B4, the “fold decrease in binding vs WT” value [8] was 18 fold, the “fold decrease in binding vs WT” value [9] was 3 fold and the “fold decrease in binding vs WT” value [10] was greater than 10 fold.

B5: chCB6-huIgG1 E294S (antibody, name in EU numbering)
heavy: not shown
light: B1 light
notes: copies: 2 + 2
For B5, the “fold decrease in binding vs WT” value [8] was 12 fold and the “fold decrease in binding vs WT” value [10] was greater than 10 fold.

B6: chCB6-huIgG1 A378Y (antibody, name in EU numbering)
heavy: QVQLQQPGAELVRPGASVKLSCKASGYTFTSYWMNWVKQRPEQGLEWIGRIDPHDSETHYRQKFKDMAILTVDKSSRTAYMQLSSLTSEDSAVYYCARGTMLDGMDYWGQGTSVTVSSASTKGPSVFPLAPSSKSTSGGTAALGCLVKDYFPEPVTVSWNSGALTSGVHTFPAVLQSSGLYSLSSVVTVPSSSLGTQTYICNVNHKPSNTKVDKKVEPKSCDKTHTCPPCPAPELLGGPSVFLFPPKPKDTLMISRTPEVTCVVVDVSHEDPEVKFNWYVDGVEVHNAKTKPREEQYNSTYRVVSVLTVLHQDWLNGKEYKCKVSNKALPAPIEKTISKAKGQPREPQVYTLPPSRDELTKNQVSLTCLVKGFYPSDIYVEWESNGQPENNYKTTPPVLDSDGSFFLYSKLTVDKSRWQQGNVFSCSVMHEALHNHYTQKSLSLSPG
light: B1 light
notes: copies: 2 + 2
B6 was tested, and the “fold increase in binding vs WT” value [11] was greater than 5 fold, the “fold increase in binding vs WT” value [9] was 6 fold and the binding result [12] was “binds”.

B7: chCB6-huIgG1 L234Q (antibody, name in EU numbering)
heavy: not shown
light: B1 light
notes: copies: 2 + 2
With B7 the “fold decrease in binding vs WT” value [7] was 5 fold.

B8: chCB6-huIgG1 F241Q (antibody, name in EU numbering)
heavy: not shown
light: B1 light
notes: copies: 2 + 2
B8 was tested, and the “fold decrease in binding vs WT” value [13] was greater than 10 fold and the “fold decrease in binding vs WT” value [1] was 30 fold.

B9: chCB6-huIgG1 S239E/I332E (antibody, name in EU numbering)
heavy: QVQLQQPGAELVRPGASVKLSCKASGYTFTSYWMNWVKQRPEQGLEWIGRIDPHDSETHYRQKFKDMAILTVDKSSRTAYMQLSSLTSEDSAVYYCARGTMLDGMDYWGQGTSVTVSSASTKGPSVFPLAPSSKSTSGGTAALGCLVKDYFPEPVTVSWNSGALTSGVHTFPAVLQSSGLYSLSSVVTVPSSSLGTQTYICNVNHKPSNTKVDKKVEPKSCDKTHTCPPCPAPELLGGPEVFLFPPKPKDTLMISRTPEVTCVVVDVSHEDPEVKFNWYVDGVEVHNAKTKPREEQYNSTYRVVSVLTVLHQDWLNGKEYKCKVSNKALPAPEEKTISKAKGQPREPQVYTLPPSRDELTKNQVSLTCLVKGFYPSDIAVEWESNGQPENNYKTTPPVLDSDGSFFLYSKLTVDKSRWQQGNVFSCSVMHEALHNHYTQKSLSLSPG
light: B1 light
notes: copies: 2 + 2
In the case of B9, the “fold increase in binding vs WT” value [14] is reported as 3 fold, the “fold increase in binding vs WT” value [15] is reported as 6 fold and the binding result [4] is reported as “binds”. For the same binder, the “fold increase in binding vs WT” value [5] was 10 fold.

B10: chCB6-huIgG1 S239P (antibody, name in EU numbering)
heavy: not shown
light: B1 light
notes: copies: 2 + 2
B10: no binding [7].

B11: chCB6-huIgG1 H268D (antibody, name in EU numbering)
heavy: not shown
light: B1 light
notes: copies: 2 + 2
B11 was tested, and the “fold increase in binding vs WT” value [7] was 3 fold.

B12: chCB6-huIgG1 L328D (antibody, name in EU numbering)
heavy: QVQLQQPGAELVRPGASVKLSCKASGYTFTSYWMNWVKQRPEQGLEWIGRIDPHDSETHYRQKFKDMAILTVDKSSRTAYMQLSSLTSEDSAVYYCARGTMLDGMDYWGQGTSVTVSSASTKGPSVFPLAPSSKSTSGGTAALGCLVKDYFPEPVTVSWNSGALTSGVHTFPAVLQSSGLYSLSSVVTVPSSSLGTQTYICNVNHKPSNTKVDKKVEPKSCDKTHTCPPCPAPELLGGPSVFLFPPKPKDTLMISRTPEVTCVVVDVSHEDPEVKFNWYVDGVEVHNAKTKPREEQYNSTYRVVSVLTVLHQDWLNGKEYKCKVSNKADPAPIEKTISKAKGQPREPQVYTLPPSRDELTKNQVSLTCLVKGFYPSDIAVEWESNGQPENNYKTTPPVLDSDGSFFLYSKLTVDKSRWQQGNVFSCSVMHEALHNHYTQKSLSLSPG
light: B1 light
notes: copies: 2 + 2
For B12, the “fold decrease in binding vs WT” value [13] was greater than 10 fold, the binding result [1] was “no binding” and the binding result [3] was “binds”. B12: no binding [4].

B13: chCB6-huIgG1 R301Q (antibody, name in EU numbering)
heavy: not shown
light: B1 light
notes: copies: 2 + 2
With B13 the “fold decrease in binding vs WT” value [8] was 13 fold, the binding result [9] was “binds” and the “fold decrease in binding vs WT” value [10] was greater than 10 fold.

B14: chCB6-huIgG1 A378W (antibody, name in EU numbering)
heavy: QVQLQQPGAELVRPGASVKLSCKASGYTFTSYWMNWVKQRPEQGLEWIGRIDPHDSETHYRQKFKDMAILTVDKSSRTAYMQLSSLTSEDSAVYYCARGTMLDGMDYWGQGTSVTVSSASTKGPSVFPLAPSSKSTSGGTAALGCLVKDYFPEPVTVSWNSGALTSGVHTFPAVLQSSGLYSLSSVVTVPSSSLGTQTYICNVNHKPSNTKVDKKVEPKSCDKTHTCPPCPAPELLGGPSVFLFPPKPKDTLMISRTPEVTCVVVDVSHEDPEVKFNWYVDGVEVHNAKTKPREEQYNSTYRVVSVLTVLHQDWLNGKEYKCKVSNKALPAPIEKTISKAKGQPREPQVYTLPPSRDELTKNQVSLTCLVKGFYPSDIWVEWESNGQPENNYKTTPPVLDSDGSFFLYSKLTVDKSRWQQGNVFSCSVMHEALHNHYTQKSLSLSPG
light: B1 light
notes: copies: 2 + 2
For B14, the “fold increase in binding vs WT” value [11] was greater than 5 fold, the “fold increase in binding vs WT” value [9] was 7 fold and the binding result [12] was “binds”.

B15: chCB6-huIgG1 G236A (antibody, name in EU numbering)
heavy: not shown
light: B1 light
notes: copies: 2 + 2
With B15 the “fold decrease in binding vs WT” value [7] was 2 fold.

B16: chCB6-huIgG1 S239H (antibody, name in EU numbering)
heavy: not shown
light: B1 light
notes: copies: 2 + 2
B16: no binding [7].

B17: chCB6-huIgG1 A330H (antibody, name in EU numbering)
heavy: not shown
light: B1 light
notes: copies: 2 + 2
B17: binds [7].

B18: chCB6-huIgG1 S239E/I332D (antibody, name in EU numbering)
heavy: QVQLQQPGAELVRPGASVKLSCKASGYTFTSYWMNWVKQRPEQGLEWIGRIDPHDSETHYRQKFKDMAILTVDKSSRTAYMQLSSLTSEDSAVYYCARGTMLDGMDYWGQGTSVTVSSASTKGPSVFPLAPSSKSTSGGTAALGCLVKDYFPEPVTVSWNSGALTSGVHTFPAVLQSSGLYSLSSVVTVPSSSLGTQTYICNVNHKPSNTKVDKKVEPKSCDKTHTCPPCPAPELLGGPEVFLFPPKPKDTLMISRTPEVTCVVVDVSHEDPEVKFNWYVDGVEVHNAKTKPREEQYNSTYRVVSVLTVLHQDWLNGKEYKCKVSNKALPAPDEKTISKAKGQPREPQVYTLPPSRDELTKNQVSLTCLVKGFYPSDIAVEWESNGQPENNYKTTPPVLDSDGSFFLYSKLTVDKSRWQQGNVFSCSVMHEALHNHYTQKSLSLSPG
light: B1 light
notes: copies: 2 + 2
With B18 the “fold increase in binding vs WT” value [14] was 3 fold, the “fold increase in binding vs WT” value [15] was 8 fold and the binding result [4] was “binds”. The “fold increase in binding vs WT” value [5] was 7 fold.

B19: chCB6-huIgG1 S298N (antibody, name in EU numbering)
heavy: not shown
light: B1 light
notes: copies: 2 + 2
In the case of B19, the “fold decrease in binding vs WT” value [13] is reported as greater than 10 fold and the “fold decrease in binding vs WT” value [1] is reported as 13 fold.

B20: chCB6-huIgG1 A378F (antibody, name in EU numbering)
heavy: not shown
light: B1 light
notes: copies: 2 + 2
With B20 the “fold increase in binding vs WT” value [11] was greater than 5 fold, the “fold increase in binding vs WT” value [9] was 6 fold and the binding result [12] was “binds”.

B21: chCB6-huIgG1 L328E (antibody, name in EU numbering)
heavy: not shown
light: B1 light
notes: copies: 2 + 2
In the case of B21, the “fold decrease in binding vs WT” value [13] is reported as greater than 10 fold, the “fold decrease in binding vs WT” value [1] is reported as 30 fold and the “fold decrease in binding vs WT” value [3] is reported as 14 fold. The binding result [4] was “no binding” and the “fold decrease in binding vs WT” value [6] was 9 fold.

B22: chCB6-huIgG1 S239D/H435S (antibody, name in EU numbering)
heavy: not shown
light: B1 light
notes: copies: 2 + 2
B22 was tested, and the “fold increase in binding vs WT” value [14] was 3 fold and the “fold increase in binding vs WT” value [15] was 6 fold.
